Molecular target: interleukin-6 (IL-6), human recombinant (Homo sapiens, UniProt P05231 30-212)
Experiment: SWCNT near-infrared fluorescence quenching, (7,5) chirality; SWCNT complex, 5250 ng/mL IL-6, 1X PBS, 3 h; no response, p=0.65903; 0.5 mg/L SWCNT-ssDNA in 1X PBS (or 1X PBS + 10% FBS), 5250 ng/mL IL-6, 120 uL, triplicate, up to 180 min; pH and temperature not stated
Details: protein: commercial; label: noncovalently adsorbed on SWCNT

Chain of interleukin-6 (IL-6), human recombinant (P05231 30-212): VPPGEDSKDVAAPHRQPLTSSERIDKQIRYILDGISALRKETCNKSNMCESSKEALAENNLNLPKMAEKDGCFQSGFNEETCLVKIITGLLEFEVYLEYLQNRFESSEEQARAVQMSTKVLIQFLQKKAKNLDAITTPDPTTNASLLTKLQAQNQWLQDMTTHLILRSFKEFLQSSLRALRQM

GTGTGTGTGTGTGTGTGTGTGTGTGTGTGT (ssDNA) [(GT)15]
binding result: no binding

From paper doi:10.1101/2024.04.05.588290, “An optical aptamer-based cytokine nanosensor detects macrophage activation by bacterial toxins”
